As usually defined, the Kd is the constant that tells how readily two partners part at equilibrium. The low end stands for a tighter complex, the high end for a looser complex.

Substitutions are numbered along the chain they refer to.

The record followed here is patent US20210261648A1 (published 2021).

The target in assay [1] is T1, FcγRIIa type R (human, UniProt P12318 34-217).
T1 chain: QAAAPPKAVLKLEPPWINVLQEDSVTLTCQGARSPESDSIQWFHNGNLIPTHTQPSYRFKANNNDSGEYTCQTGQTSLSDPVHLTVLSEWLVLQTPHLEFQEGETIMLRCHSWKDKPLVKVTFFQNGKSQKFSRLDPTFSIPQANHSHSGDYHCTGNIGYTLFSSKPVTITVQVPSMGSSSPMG
The assay is described as follows: SPR (Biacore); parent = IL6R-B3/IL6R-L. On the technique in general: In SPR one partner is held on a chip, and binding of the other changes the refractive index at the surface.

In assay [2] the target is T2, FcγRIIb (human, UniProt P31994 43-217).
T2 construct: extracellular domain; also called FcgRIIb; CD32B
T2 sequence (looked up): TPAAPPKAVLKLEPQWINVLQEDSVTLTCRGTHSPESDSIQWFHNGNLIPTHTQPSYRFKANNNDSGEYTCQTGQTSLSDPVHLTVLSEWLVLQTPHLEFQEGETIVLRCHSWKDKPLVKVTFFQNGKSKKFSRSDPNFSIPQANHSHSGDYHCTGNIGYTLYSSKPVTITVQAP
Kind of assay: SPR (Biacore); parent = IL6R-B3/IL6R-L.

Assay [3] deals with T3, FcγRIIa type H (human, UniProt P12318 34-217).
T3 construct: extracellular domain; also called FcγRIIaH; FcgRIIaH
T3 sequence (looked up): T1 chain with R134H
The assay is described as follows: SPR (Biacore), captured antibody, soluble FcγR.

In assay [4] the target is T1, FcγRIIa type R. The assay is described as follows: SPR (Biacore), captured antibody, soluble FcγR.
Assay [5] concerns the target T2, FcγRIIb. The assay is described as follows: SPR (Biacore), captured antibody, soluble FcγR.
For assay [6], the target named is T4, FcγRIa (human, UniProt P12314 16-292).
T4 construct: Whole entry named; also called FcgRIa; CD64A
T4 sequence (P12314 16-292): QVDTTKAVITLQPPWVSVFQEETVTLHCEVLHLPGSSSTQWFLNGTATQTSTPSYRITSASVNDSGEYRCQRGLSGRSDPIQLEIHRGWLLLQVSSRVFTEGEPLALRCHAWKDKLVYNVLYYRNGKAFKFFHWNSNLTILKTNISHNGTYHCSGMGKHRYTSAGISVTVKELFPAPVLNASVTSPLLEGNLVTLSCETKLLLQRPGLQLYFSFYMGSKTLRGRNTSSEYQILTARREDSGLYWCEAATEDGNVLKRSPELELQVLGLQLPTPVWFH
Kind of assay: SPR (Biacore), captured antibody, soluble FcγR.

Assay [7] addresses T5, FcγRIIa type H extracellular domain with C-terminal His tag (human, UniProt P12318 34-217).
T5 construct: extracellular domain; also called FcγRIIaH; FcgRIIaH; not shown: His tag attached to the C terminus
T5 sequence (looked up): T1 chain with R134H
The assay is described as follows: SPR binding amount, relative to IL6R-BF648/IL6R-L.

In assay [8] the target is T6, FcγRIa extracellular domain with C-terminal His tag (human, UniProt P12314 16-292).
T6 construct: also called FcgRIa; not shown: His tag attached to the C terminus
T6 sequence (P12314 16-292): as above
Kind of assay: SPR binding amount, relative to IL6R-BF648/IL6R-L.

For assay [9], the target named is T7, FcγRIIb extracellular domain with C-terminal His tag (human, UniProt P31994 43-217).
T7 construct: extracellular domain; For crystallography it was expressed with kifunensine and trimmed with Endo F1; also called FcgRIIb; FcγRIIb extracellular region; not shown: His tag attached to the C terminus
T7 sequence (looked up): T2 sequence (looked up)
The assay is described as follows: SPR binding amount, relative to IL6R-BF648/IL6R-L.

B1: IL6R-BP503/IL6R-L (antibody, human IgG1, kappa)
heavy: QVQLQESGPGLVKPSETLSLTCAVSGHSISHDHAWSWVRQPPGEGLEWIGFISYSGITNYNPSLQGRVTISRDNSKNTLYLQMNSLRAEDTAVYYCARSLARTTAMDYWGEGTLVTVSSASTKGPSVFPLAPSSKSTSGGTAALGCLVKDYFPEPVTVSWNSGALTSGVHTFPAVLQSSGLYSLSSVVTVPSSSLGTQTYICNVNHKPSNTKVDKKVEPKSCDKTHTCPPCPAPDLLGDDSVFLFPPKPKDTLMISRTPEVTCVVIDVAEEDGEVKFNWYVDGVEVHNAKTKPREEQDNSTYRVVSVLTVLHQDWLNGKEYKCKVSNKGLPRPIEKTISKAKGQPREPQVYTLPPSRDELTKNQVSLTCLVKGFYPSDIAVEWESNGQPENNYKTTPMVLDSDGSFFLYSKLTVDKSRWQQGNVFSCSVMHEALHNHYTQESLSLSP
light: not shown
notes: Alterations in EU numbering, introduced into IL6R-B3
Take B1: in assay [1], the “KD(IIaR) of the parent polypeptide/KD(IIaR) of the altered polypeptide” value (“KD(IIaR)” for short) stood at 19.4 fold. Further, the “KD(IIb) of the parent polypeptide/KD(IIb) of the altered polypeptide” value (“KD(IIb)” below) in assay [2] stood at 1810 fold. Moreover, the equilibrium dissociation constant (Kd) was 860 nM in assay [3], 57 nM in assay [4], 1.7 nM in assay [5] and 1.2 nM in assay [6].

B2: IL6R-2B169/IL6R-L (antibody, human IgG1, kappa)
heavy: QVQLQESGPGLVKPSETLSLTCAVSGHSISHDHAWSWVRQPPGEGLEWIGFISYSGITNYNPSLQGRVTISRDNSKNTLYLQMNSLRAEDTAVYYCARSLARTTAMDYWGEGTLVTVSSASTKGPSVFPLAPSSKSTSGGTAALGCLVKDYFPEPVTVSWNSGALTSGVHTFPAVLQSSGLYSLSSVVTVPSSSLGTQTYICNVNHKPSNTKVDKKVEPKSCDKTHTCPPCPAPELLGGDSVFLFPPKPKDTLMISRTPEVTCVVVDVSHEDPEVKFNWYVDGVEVHNAKTKPREEQYNSTYRVVSVLTVLHQDWLNGKEYKCKISNKALPAPIEKTISKAKGQPREPQVYTLPPSRDELTKNQVSLTCLVKGFYPSDIAVEWESNGQPENNYKTTPPVLDSDGSFFLYSKLTVDKSRWQQGNVFSCSVMHEALHNHYTQESLSLSP
light: not shown
notes: Alterations introduced into IL6R-B3
Take B2: the “relative binding activity (IL6R-BF648/IL6R-L = 100)” value (shortened to “relative binding activity”) in assay [7] was determined as 83; in assay [8], 73; in assay [9], 104.

B3: IL6R-2B002/IL6R-L (antibody, human IgG1, kappa)
heavy: B2 heavy with E235D, I325V
light: not shown
notes: as for B2
For B3, the “relative binding activity” value in [7] was found to be 147; in [8] it was 118; in assay [9], 116.

B4: IL6R-BP556/IL6R-L (antibody, human IgG1, kappa)
heavy: B1 heavy with D235E, A269G, G329A, M398P
light: not shown
notes: as for B1
B4: the “KD(IIaR)” value in [1] is 3.7 fold. The “KD(IIb)” value in [2] is 370 fold. In addition, the Kd in [3] worked out at 5800 nM; in assay [4] it was 300 nM; in assay [5] it was 8.4 nM; in assay [6] it was 43 nM.

B5: IL6R-BP540/IL6R-L (antibody, human IgG1, kappa)
heavy: B1 heavy with D235E, A269S, E274P, G329A, M398P
light: not shown
notes: as for B1
With B5, the “KD(IIaR)” value in assay [1] stood at 5.2 fold. Also, in assay [2], the “KD(IIb)” value amounted to 541 fold. Also, the Kd in assay [3] stood at 4600 nM; in assay [4], 210 nM; in assay [5], 5.7 nM; in assay [6], 96 nM.

B6: IL6R-BP103/IL6R-L (antibody, human IgG1, kappa)
heavy: B2 heavy with S269V, I325V
light: not shown
notes: as for B2
Take B6: the “relative binding activity” value in [7] came out at 69; in assay [8] it was 56; in [9], 107.

B7: IL6R-BP550/IL6R-L (antibody, human IgG1, kappa)
heavy: B1 heavy with D235E, A269G, E274D, G329A, M398P
light: not shown
notes: as for B1
On to B7, for which the “KD(IIaR)” value in assay [1] is 3.3 fold. Besides, in [2], the “KD(IIb)” value was determined as 406 fold. For the same molecule, the Kd in [3] was 5000 nM; in assay [4], 340 nM; in [5], 7.6 nM; in assay [6], 25 nM.

B8: IL6R-BP510/IL6R-L (antibody, human IgG1, kappa)
heavy: B1 heavy with D235E, E274P, D298Y, G329A, M398P
light: not shown
notes: as for B1
Turning to B8, in assay [1], the “KD(IIaR)” value is 6.6 fold. Besides, in [2], the “KD(IIb)” value was determined as 807 fold. Also, the dissociation constant Kd in assay [3] was 4000 nM; in [4], 170 nM; in assay [5] it was 3.8 nM; in assay [6], 6 nM.

B9: IL6R-BP551/IL6R-L (antibody, human IgG1, kappa)
heavy: B1 heavy with D235E, A269S, E274D, G329A, M398P
light: not shown
notes: as for B1
For the molecule B9, the “KD(IIaR)” value in [1] turned out to be 4.5 fold. The “KD(IIb)” value in assay [2] was 482 fold. In addition, the Kd is 2800 nM in [3], 250 nM in assay [4], 6.4 nM in assay [5] and 32 nM in assay [6].

B10: IL6R-BP102/IL6R-L (antibody, human IgG1, kappa)
heavy: B2 heavy with S269Q, I325V
light: not shown
notes: as for B2
As for B10, the “relative binding activity” value in [7] was 66; in [8], 104; in assay [9] it was 106.
